Reference: US20070253950A1 (Pfizer, published 2007)

Legend:
rhNCAM-1 = rhNCAM-1 (human, UniProt P13591-1 20-603, limits assumed); assay: direct binding ELISA, receptor coated 1 µg/ml, antibody 20 µg/ml
Procedure: (§1) These receptors were chosen because they are cell-surface expressed, like RAGE, and their interaction with ligand is similarly dependent on charge. Tested receptors were rhVCAM-1, rhICAM-1-Fc, rhTLR4 (C-terminal His tag), rhNCAM-1, rhB7-H1-Fc mLox1-Fc, hLox1-Fc and hRAGE-Fc (as a positive control). ELISA plates were coated overnight with 1 μg/ml of the listed receptor proteins.

[1] = molecular target: T1, human RAGE-Fc fusion protein (human, UniProt Q15109 23-344); assay: as above
T1 construct: amino acids 1-344 of human RAGE appended to the Fc domain of human IgG; also called hRAGE-Fc; huRAGE-Fc
Procedure: as §1

mLox1-Fc = mLox1-Fc (mouse, UniProt Q9EQ09 60-363, limits assumed); assay: as above
Chain of mLox1-Fc (Q9EQ09 60-363 limits assumed): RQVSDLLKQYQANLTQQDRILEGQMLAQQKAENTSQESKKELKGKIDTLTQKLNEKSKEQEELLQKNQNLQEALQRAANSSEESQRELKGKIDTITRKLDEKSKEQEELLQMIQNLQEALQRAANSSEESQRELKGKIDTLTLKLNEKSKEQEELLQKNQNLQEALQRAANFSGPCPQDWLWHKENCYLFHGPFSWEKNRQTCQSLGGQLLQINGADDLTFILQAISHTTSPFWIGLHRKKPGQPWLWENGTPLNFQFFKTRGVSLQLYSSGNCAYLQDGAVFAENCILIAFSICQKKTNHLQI
Procedure: as §1

rhVCAM-1 = molecular target: T2, rhVCAM-1 (human, UniProt P19320 25-698); assay: as above
T2 sequence (looked up): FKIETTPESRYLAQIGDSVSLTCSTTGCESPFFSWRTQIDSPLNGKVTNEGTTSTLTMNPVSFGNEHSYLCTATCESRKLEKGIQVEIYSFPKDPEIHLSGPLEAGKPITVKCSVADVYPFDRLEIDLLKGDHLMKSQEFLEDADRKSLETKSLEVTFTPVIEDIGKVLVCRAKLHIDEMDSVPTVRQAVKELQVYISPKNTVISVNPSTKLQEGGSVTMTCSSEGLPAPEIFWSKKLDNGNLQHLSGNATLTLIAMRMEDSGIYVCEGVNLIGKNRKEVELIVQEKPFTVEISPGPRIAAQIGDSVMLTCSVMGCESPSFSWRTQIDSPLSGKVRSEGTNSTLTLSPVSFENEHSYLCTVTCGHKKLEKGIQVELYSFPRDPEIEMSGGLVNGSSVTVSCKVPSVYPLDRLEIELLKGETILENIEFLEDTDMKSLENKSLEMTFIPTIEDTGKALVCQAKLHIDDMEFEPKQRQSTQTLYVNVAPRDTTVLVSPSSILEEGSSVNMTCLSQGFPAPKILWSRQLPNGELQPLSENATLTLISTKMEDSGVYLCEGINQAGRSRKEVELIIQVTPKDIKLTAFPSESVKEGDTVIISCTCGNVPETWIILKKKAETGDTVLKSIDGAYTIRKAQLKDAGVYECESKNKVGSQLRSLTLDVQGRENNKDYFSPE
Procedure: as §1

hLox1-Fc = hLox1-Fc (human, UniProt P78380 61-273); assay: as above
Procedure: as §1

rhB7-H1-Fc = rhB7-H1-Fc (human, UniProt Q9NZQ7 19-239); assay: as above
Chain of rhB7-H1-Fc (Q9NZQ7 19-239 limits assumed): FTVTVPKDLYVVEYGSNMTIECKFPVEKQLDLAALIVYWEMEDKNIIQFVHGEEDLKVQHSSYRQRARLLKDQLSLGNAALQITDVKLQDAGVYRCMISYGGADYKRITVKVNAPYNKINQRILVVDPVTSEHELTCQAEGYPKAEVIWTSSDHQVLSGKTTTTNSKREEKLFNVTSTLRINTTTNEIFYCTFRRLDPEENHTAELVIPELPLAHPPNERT
Procedure: as §1

[2] = molecular target: T1, human RAGE-Fc fusion protein; assay: ligand competition ELISA, panel 'Blocks hRAGE-Fc interaction with S100-B'; blocked ligand S100-B
[3] = molecular target: T3, murine RAGE-strep tag fusion protein (murine, UniProt Q62151 23-343); assay: BIACORE capture assay: mRAGE-SA (SA-Mu RAGE) over antibody captured on anti-human Fc; 1:1 Langmuir global fit; average of FC2-FC4
T3 construct: also called mRAGE-strep; mRAGE-SA
T3 chain: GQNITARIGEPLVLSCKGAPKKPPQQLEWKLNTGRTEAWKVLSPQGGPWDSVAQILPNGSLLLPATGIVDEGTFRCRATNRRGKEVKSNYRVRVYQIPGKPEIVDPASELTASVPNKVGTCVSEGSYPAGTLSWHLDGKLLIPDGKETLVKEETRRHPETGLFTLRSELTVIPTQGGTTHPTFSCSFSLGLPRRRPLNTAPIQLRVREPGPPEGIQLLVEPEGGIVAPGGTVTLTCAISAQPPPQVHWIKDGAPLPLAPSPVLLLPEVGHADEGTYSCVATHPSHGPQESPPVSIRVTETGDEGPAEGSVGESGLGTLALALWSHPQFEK
Procedure: (§2) The assays were performed by coating anti-human Fc antibodies onto a CM5 BIA chip with 5000 RU (pH 5.0, 7 min.) in flow cells 1-4. Each antibody was captured by flowing at 2.0 μg/ml over the anti-Fc antibodies in flow cells 2-4 (flow cell 1 was used as a reference).

[4] = molecular target: T4, human RAGE-strep tag fusion protein (human, UniProt Q15109 23-344); assay: BIACORE capture assay: hRAGE-SA over antibody captured on anti-human Fc; 1:1 Langmuir global fit; FC2
T4 construct: monomeric soluble human RAGE; also called hRAGE-SA; soluble human streptavidin-tagged RAGE
Procedure: as §2

[5] = molecular target: T4, human RAGE-strep tag fusion protein; assay: BIACORE capture assay: hRAGE-SA over antibody captured on anti-human Fc; steady state affinity; average of FC2-FC4
Procedure: as §2

[6] = molecular target: T4, human RAGE-strep tag fusion protein; assay: BIACORE, antibody coated on CM5 chip, hRAGE-SA in flow
Procedure: The assays were performed by coating antibodies onto a CM5 BIA chip with 5000-7000 RU.

[7] = molecular target: T4, human RAGE-strep tag fusion protein; assay: BIACORE capture assay: hRAGE-SA over antibody captured on anti-human Fc; 1:1 Langmuir global fit; average of FC2-FC4
Procedure: as §2

[8] = molecular target: T1, human RAGE-Fc fusion protein; assay: ligand competition ELISA, panel 'Blocks hRAGE-Fc interaction with S100-A'; blocked ligand S100-A
[9] = molecular target: T1, human RAGE-Fc fusion protein; assay: ligand competition ELISA, panel 'Blocks hRAGE-Fc interaction with HMGB1'; blocked ligand HMGB1

Chain of rhNCAM-1 (P13591 other isoform, or with tags, fused parts or gaps limits assumed): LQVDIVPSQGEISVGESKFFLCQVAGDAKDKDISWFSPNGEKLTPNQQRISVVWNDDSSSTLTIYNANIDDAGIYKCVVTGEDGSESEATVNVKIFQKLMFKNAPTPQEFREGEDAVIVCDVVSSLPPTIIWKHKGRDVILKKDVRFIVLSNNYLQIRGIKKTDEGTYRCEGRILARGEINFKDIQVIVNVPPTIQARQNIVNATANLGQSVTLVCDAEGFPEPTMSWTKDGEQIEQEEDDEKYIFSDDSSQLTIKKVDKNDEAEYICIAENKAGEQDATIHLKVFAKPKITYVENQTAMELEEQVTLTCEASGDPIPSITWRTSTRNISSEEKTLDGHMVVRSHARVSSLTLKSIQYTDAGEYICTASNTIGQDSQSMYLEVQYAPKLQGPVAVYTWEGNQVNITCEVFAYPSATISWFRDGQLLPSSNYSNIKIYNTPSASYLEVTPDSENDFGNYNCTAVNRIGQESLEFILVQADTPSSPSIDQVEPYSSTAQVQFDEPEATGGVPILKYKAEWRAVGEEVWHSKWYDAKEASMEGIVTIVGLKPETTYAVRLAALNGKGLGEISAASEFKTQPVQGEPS

- OD450 (rhNCAM-1): 0.006
- OD450 [1]: 3.8
- OD450 (mLox1-Fc): 0.01
- OD450 (rhVCAM-1): 0.004
- OD450 (hLox1-Fc): 0.017
- OD450 (rhB7-H1-Fc): 0.003
- IC50 (read off the curve) [2]: ~0.08 µg/mL
- Kd [3]: 1.9 nM
- koff [3]: 0.0041 s⁻¹
- kon [3]: 2.1e+06 M⁻¹ s⁻¹
- Kd [4]: 8.2 nM
- koff [4]: 0.0281 s⁻¹
- kon [4]: 3.42e+06 M⁻¹ s⁻¹
- Kd [5]: 11 nM
- Ka [6]: 1.77e+08 M⁻¹
- Kd [6]: 5.66 nM
- koff [6]: 0.0248 s⁻¹
- kon [6]: 4.39e+06 M⁻¹ s⁻¹
- Kd [7]: 7.91 nM
- koff [7]: 0.0351 s⁻¹
- kon [7]: 4.41e+06 M⁻¹ s⁻¹
- IC50 (read off the curve) [8]: ~0.08 µg/mL
- IC50 (read off the curve) [9]: ~0.1 µg/mL
B1: chimeric XT-M4 (antibody, V domains shown)
VH: EVQLVESGGGLVQPGRSLKLSCVVSGFTFNNYWMTWIRQTPGKGLEWVASINNSGDNTYYPDSVKDRFTISRDNAKSTLYLQMNSLRSEDTATYYCTRGGDITTGFDYWGQGVMVTVSS
VL: DIQMTQSPSSMSVSLGDTITITCRASQDVGIYVNWFQQKPGKSPRRMIYRATNLADGVPSRFSGSRSGSIYSLTISSLESEDVADYHCLEFDEHPLTFGSGTKVEIK
modifications: N-linked oligosaccharide at Asn52 (CDR2) on part of the heavy chains
notes: rat XT-M4 variable regions fused to human kappa light chain and human IgG1 heavy chain constant regions; L234A and G237A in the human IgG1 Fc region; also called chimeric antibody XT-M4; XT-M4-A-1
